Results: paper PMC4330345 (Nucleic Acids Research, 2015)
Positions count from the first letter of the chain named.

T1: HlyU_Vc wild type (Vibrio cholerae, UniProt P52695 1-108)
T1 sequence: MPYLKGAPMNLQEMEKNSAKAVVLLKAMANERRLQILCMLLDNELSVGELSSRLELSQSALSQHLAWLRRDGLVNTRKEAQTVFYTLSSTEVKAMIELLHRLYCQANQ

B1: HlyU of V. cholerae, wild type (natural protein)
chain: T1 sequence
notes: not shown: His6, N-terminal, cleaved
B2: HlyU_Vc S62A (natural protein)
chain: T1 sequence with S62A
notes: source: E. coli BL21 (DE3), purified (Ni-NTA); not shown: His6, N-terminal, cleaved
B3: HlyU_Vc Q63A (natural protein)
chain: T1 sequence with Q63A
notes: as for B2
B4: HlyU_Vc H64A (natural protein)
chain: T1 sequence with H64A
notes: as for B2
B5: HlyU_Vc L65A (natural protein)
chain: T1 sequence with L65A
notes: as for B2
B6: HlyU_Vc A66S (natural protein)
chain: T1 sequence with A66S
notes: as for B2
B7: HlyU_Vc W67A (natural protein)
chain: T1 sequence with W67A
notes: as for B2
B8: HlyU_Vc R69A (natural protein)
chain: T1 sequence with R69A
notes: as for B2
B9: HlyU_Vc R70A (natural protein)
chain: T1 sequence with R70A
notes: as for B2
B10: HlyU_Vc K78A (natural protein)
chain: T1 sequence with K78A
notes: as for B2
B11: HlyU_Vc Q81A (natural protein)
chain: T1 sequence with Q81A
notes: as for B2
B12: HlyU_Vc Y85A (natural protein)
chain: T1 sequence with Y85A
notes: as for B2
B13: HlyU_Vc E49A (natural protein)
chain: T1 sequence with E49A
notes: as for B2
B14: HlyU_Vc T90A (natural protein)
chain: T1 sequence with T90A
notes: as for B2
B15: HlyU_Vc L98D (natural protein)
chain: T1 sequence with L98D
notes: as for B2
B16: HlyU_Vc K26A (natural protein)
chain: T1 sequence with K26A
notes: as for B2
B17: HlyU_Vc N30A (natural protein)
chain: T1 sequence with N30A
notes: as for B2
B18: HlyU_Vc R32A (natural protein)
chain: T1 sequence with R32A
notes: as for B2
B19: HlyU_Vc R33A (natural protein)
chain: T1 sequence with R33A
notes: as for B2
B20: O3 (dsDNA)
DNA 1: TTGGGGGGGGGGGGGGGACTAAATTAGTTCAAATT
DNA 2: AATTTGAACTAATTTAGTCCCCCCCCCCCCCCCAA
B21: O1 (dsDNA)
DNA 1: TTTATAAATTAATTCAGACTAAATTAGTTCAAATT
DNA 2: AATTTGAACTAATTTAGTCTGAATTAATTTATAAA
B22: O2 (dsDNA)
DNA 1: ATTAATCTTTAAATCAACTTTATAAATTAATTCAG
DNA 2: CTGAATTAATTTATAAAGTTGATTTAAAGATTAAT

Tests used:
SEC = target: the molecule itself; experiment: SEC
[1] = target: the molecule itself; experiment: SEC; analytical gel filtration (AKTA prime Plus); 500 ug protein injected; 50 mM sodium phosphate, 200 mM sodium chloride, pH 6.8; molecular weight from marker proteins; self-association, dimer against monomer
HlyU_Vc wild type = target: T1, HlyU_Vc wild type; experiment: EMSA; EMSA: 1 nM probe, 1 mM Tris, 6 mM NaCl, 0.5 mM MgCl2, 0.01 mM EDTA, 0.1 mM CaCl2, 0.2% glycerol, 0.03 mg/ml salmon sperm DNA, 1 h, 4 C, pH not stated; footprint: ~10 nM DNA, 1 h, 4 C; conditions: protein: recombinant; tags: N-terminal 6xHis removed with thrombin; chain copies: 2; label: radiolabel; blunt

Row | Binder | binding result [1] | also measured
1 | B1 |  | stoichiometry N (SEC): 2
2 | B2 | binds | 
3 | B3 | binds | 
4 | B4 | binds | 
5 | B5 | binds | 
6 | B6 | binds | 
7 | B7 | binds | 
8 | B8 | binds | 
9 | B9 | binds | 
10 | B10 | binds | 
11 | B11 | binds | 
12 | B12 | binds | 
13 | B13 | binds | 
14 | B14 | binds | 
15 | B15 | binds | 
16 | B16 | binds | 
17 | B17 | binds | 
18 | B18 | binds | 
19 | B19 | binds | 
20 | B20 |  | binding result (HlyU_Vc wild type): no binding
21 | B21 |  | binding result (HlyU_Vc wild type): binds
22 | B22 |  | binding result (HlyU_Vc wild type): no binding
